These results are taken from paper PMC11900463.

This assay concerns the target T1, sCPR (truncated soluble form of rat NADPH–cytochrome P450 reductase) (rat) (UniProt P00388).
T1 sequence (P00388 whole entry, looked up): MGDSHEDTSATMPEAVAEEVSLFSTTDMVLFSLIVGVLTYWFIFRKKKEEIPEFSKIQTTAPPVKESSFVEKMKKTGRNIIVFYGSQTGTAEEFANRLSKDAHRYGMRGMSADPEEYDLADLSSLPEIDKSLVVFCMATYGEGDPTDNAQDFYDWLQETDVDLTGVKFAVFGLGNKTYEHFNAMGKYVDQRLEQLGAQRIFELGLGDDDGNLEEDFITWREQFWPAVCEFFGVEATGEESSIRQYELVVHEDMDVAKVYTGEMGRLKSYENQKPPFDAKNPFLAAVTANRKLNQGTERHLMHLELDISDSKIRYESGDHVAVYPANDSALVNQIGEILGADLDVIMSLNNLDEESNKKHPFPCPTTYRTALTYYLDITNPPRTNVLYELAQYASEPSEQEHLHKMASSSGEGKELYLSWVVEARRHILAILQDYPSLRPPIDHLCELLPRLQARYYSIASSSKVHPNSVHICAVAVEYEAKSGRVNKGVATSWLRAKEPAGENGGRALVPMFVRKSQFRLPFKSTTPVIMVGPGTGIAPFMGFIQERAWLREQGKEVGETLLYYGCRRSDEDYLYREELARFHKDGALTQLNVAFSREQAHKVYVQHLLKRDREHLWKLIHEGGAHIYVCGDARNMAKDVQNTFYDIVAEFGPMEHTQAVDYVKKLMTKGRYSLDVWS

For the molecule “6xHis-tagged ΔHRM tsHO-2 (from UniProt P23711 29-292) (enzyme)”, the apparent reduction rate constant of heme by sCPR (formation of the CO-bound heme complex, CO-saturated, anaerobic, 30 °C; non-His-tagged enzyme) is 106 min⁻¹ and the enzymatic activity (rate of bilirubin formation at 37 °C with 2.9 μM sCPR, 40 μM heme, NADPH; non-His-tagged enzyme) was 14.3 min⁻¹.

B1: 6xHis-tagged C281S tsHO-2 (enzyme)
chain: MADLSELLKEGTKEAHDRAENTQFVKDFLKGNIKKELFKLATTALYFTYSALEEEMDRNKDHPAFAPLYFPTELHRKEALIKDMEYFFGENWEEQVKCSEAAQKYVDRIHYVGQNEPELLVAHAYTRYMGDLSGGQVLKKVAQRALKLPSTGEGTQFYLFEHVDNAQQFKQFYRARMNALDLSMKTKERIVEEANKAFEYNMQIFSELDQAGSMLTKETLEDGLPVHDGKGDVRKCPFYAAQPDKGTLGGSNSPFRTAMAVLRK
Take B1: the apparent reduction rate constant of heme by sCPR (formation of the CO-bound heme complex, CO-saturated, anaerobic, 30 °C; non-His-tagged enzyme) amounted to 89.6 min⁻¹ and the enzymatic activity (rate of bilirubin formation at 37 °C with 2.9 μM sCPR, 40 μM heme, NADPH; non-His-tagged enzyme) turned out to be 7.32 min⁻¹.

B2: 6xHis-tagged C264S tsHO-2 (enzyme)
chain: MADLSELLKEGTKEAHDRAENTQFVKDFLKGNIKKELFKLATTALYFTYSALEEEMDRNKDHPAFAPLYFPTELHRKEALIKDMEYFFGENWEEQVKCSEAAQKYVDRIHYVGQNEPELLVAHAYTRYMGDLSGGQVLKKVAQRALKLPSTGEGTQFYLFEHVDNAQQFKQFYRARMNALDLSMKTKERIVEEANKAFEYNMQIFSELDQAGSMLTKETLEDGLPVHDGKGDVRKSPFYAAQPDKGTLGGSNCPFRTAMAVLRK
Turning to B2, the apparent reduction rate constant of heme by sCPR (formation of the CO-bound heme complex, CO-saturated, anaerobic, 30 °C; non-His-tagged enzyme) was 93.2 min⁻¹ and the enzymatic activity (rate of bilirubin formation at 37 °C with 2.9 μM sCPR, 40 μM heme, NADPH; non-His-tagged enzyme) is 4.91 min⁻¹.

B3: 6xHis-tagged C264S/C281S tsHO-2 (enzyme)
chain: MADLSELLKEGTKEAHDRAENTQFVKDFLKGNIKKELFKLATTALYFTYSALEEEMDRNKDHPAFAPLYFPTELHRKEALIKDMEYFFGENWEEQVKCSEAAQKYVDRIHYVGQNEPELLVAHAYTRYMGDLSGGQVLKKVAQRALKLPSTGEGTQFYLFEHVDNAQQFKQFYRARMNALDLSMKTKERIVEEANKAFEYNMQIFSELDQAGSMLTKETLEDGLPVHDGKGDVRKSPFYAAQPDKGTLGGSNSPFRTAMAVLRK
As to B3, the apparent reduction rate constant of heme by sCPR (formation of the CO-bound heme complex, CO-saturated, anaerobic, 30 °C; non-His-tagged enzyme) amounted to 113 min⁻¹ and the enzymatic activity (rate of bilirubin formation at 37 °C with 2.9 μM sCPR, 40 μM heme, NADPH; non-His-tagged enzyme) came to 11.2 min⁻¹.
